Results: patent publication US20140018297A1 (Novo Nordisk, published 2014)

What was measured:
[1] = target: T1, Fluorescent labelled FVIII (Oregon green-FVIII) (UniProt P00451 20-2351, limits assumed, Oregon green label); experiment: cell-based or functional assay
T1 sequence (looked up): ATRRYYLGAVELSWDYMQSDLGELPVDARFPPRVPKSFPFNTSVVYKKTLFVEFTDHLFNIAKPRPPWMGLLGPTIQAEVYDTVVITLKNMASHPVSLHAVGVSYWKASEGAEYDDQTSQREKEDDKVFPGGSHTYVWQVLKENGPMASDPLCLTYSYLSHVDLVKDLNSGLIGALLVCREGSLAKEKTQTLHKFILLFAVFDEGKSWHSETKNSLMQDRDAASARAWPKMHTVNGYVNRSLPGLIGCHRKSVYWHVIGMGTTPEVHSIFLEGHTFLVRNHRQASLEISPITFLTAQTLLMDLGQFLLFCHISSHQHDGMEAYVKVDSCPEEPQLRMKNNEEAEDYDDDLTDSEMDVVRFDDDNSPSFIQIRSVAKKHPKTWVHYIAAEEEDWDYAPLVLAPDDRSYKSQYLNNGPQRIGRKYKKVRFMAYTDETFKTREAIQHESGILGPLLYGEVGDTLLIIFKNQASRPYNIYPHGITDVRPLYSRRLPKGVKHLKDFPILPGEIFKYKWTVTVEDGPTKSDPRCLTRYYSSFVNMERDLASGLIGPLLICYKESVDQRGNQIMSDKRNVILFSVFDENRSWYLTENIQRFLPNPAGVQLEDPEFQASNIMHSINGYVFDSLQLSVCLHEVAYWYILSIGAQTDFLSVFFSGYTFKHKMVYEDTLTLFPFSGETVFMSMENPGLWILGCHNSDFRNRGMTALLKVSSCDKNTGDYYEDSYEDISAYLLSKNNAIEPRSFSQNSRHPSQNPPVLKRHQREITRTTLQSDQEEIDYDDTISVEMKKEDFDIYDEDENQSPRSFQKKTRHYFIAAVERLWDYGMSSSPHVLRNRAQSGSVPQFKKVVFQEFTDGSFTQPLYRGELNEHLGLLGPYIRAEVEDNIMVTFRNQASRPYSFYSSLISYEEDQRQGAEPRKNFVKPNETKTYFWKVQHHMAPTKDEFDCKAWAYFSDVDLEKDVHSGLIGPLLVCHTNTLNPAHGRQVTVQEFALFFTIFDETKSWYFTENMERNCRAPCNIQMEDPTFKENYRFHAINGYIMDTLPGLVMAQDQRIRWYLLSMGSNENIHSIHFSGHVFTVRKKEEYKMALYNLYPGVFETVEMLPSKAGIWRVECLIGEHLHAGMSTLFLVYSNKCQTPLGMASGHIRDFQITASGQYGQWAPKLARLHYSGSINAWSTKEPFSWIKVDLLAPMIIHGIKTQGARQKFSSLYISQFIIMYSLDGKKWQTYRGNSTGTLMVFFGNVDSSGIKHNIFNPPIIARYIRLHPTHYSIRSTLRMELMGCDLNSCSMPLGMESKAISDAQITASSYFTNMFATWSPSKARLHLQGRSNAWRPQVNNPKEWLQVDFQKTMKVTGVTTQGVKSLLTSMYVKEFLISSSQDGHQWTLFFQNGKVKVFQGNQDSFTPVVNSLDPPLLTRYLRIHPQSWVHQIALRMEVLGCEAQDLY

[2] = target: T2, FVIII (as used in the competition ELISA of Example 21; form not stated) (UniProt P00451 20-2351, limits assumed); experiment: competition ELISA; competitor coated human VWF; FVIII 1 nM pre-incubated with the fragment
T2 sequence (looked up): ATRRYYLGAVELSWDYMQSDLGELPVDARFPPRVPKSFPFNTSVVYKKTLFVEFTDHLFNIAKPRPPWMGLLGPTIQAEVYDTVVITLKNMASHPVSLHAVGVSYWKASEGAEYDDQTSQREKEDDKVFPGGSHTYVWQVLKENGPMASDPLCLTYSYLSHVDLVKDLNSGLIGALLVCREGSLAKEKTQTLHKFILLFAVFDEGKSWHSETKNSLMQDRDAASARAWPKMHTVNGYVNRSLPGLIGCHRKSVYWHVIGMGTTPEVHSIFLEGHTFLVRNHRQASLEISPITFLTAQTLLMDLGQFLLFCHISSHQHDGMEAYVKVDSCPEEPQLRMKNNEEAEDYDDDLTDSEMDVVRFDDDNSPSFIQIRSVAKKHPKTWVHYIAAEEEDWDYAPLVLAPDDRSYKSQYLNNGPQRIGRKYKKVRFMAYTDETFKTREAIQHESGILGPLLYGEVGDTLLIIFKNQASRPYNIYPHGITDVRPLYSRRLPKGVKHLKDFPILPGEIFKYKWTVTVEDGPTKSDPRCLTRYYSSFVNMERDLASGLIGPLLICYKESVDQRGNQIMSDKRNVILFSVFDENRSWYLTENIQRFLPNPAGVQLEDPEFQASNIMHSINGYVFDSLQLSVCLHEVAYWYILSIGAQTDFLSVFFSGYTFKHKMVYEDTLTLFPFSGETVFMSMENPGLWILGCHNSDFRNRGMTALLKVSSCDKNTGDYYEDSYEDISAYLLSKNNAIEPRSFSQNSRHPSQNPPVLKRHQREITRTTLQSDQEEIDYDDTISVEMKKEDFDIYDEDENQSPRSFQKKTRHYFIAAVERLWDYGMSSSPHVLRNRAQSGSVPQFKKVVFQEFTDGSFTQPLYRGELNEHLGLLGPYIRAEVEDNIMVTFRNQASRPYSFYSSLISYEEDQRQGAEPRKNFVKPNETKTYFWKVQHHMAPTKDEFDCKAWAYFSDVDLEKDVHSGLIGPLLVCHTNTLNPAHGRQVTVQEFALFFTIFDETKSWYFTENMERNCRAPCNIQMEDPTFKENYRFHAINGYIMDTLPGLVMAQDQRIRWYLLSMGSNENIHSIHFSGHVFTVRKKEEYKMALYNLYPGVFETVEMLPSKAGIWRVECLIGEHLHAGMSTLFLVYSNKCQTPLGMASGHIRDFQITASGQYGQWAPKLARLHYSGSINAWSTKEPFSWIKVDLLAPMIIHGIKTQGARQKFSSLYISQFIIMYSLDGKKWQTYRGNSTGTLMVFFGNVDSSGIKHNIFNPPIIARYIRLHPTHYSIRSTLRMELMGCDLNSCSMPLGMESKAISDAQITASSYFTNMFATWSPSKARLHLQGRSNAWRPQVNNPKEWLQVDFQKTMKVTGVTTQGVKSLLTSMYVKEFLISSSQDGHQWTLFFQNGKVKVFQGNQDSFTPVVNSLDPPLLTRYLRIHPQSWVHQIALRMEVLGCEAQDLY
Experimental: In order to investigate the binding of the different VWF fragments to FVIII the following method is used. Briefly, human VWF is coated in a microtiterplate and incubated overnight at 4° C. After blocking, a solution with pre-incubated FVIII (1 nM) and VWF/VWF-fragment is added to the plate, followed by detection with biotinylated anti FVIII antibody and streptavidin-peroxidase S-POD (1:20000). The absorbance is measured at 450/620 nm.

[3] = target: T3, FVIII (N8, turoctocog alfa), B domain truncated FVIII (human, UniProt P00451 20-2351); experiment: SEC-UV (280 nm), Waters Biosuite 4.6x300 mm, 0.3 ml/min, 155 mM NaCl, 10 mM calcium acetate, 10% isopropanol, 25 °C; FVIII 10 µM, fragment 20 µM, 1:2 mixture
T3 construct: also called F8; F8-500
T3 sequence: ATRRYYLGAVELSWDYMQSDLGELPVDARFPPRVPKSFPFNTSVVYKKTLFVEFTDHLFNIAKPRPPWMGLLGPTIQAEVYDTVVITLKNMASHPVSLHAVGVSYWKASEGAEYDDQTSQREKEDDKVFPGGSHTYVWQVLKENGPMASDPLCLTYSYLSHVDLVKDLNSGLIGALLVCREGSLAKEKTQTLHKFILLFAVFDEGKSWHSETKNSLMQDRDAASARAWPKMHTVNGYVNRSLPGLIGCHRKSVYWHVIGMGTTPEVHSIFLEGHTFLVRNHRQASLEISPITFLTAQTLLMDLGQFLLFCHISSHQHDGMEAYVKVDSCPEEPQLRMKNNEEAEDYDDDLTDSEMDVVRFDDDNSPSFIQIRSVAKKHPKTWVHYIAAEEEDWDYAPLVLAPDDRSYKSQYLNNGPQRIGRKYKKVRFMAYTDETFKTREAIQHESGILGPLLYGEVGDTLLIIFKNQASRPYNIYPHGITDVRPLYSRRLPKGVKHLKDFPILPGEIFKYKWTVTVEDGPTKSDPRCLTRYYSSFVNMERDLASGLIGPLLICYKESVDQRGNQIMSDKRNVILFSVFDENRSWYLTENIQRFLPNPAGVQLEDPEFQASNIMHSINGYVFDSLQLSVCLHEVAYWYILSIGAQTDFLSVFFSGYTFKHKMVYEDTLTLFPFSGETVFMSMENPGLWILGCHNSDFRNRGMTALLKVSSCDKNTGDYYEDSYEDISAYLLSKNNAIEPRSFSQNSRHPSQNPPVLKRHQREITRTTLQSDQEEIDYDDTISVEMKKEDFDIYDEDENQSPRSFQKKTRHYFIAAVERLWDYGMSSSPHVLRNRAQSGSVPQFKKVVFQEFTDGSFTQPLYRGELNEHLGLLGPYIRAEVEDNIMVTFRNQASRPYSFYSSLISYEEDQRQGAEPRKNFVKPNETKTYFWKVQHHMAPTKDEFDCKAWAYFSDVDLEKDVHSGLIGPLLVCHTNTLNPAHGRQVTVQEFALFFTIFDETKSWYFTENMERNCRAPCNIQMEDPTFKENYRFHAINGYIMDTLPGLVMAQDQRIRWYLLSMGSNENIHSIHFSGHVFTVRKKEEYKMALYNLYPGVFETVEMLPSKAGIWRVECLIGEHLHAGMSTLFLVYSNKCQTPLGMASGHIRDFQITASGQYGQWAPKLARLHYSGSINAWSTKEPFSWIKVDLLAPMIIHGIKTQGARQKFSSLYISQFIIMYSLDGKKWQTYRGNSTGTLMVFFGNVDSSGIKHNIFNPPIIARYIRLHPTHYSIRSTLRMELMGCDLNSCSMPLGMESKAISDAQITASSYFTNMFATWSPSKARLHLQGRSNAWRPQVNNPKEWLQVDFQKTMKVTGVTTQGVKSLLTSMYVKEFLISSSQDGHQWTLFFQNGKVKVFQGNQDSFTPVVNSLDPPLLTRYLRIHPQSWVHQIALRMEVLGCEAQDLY
Experimental: Size-exclusion chromatography was performed on a Waters Biosuite 4.6×300 mm column using a flow rate of 0.3 ml/min and a running buffer of 155 mM NaCl, 10 mM Calciumacetat, 10% Isopropanol at 25° C. The absorbance of the effluent was monitored by a UV detector at 280 nm. SEC-UV characterization were performed of FVIII, TIL′/E′/D3/A1 III, TIL′/E′/D3 II, and 1:2 complexes of FVIII—TIL′/E′/D3/A1 III and of FVIII—TIL′/E′/D3 II. Samples of FVIII 10 μM, TIL′/E′/D3/A1 III 20 μM, TIL′/E′/D3 II 20 μM, and in complex were prepared and 15 μL were loaded on to the column.

B1: VWF(764-1041)-ALA-HPC4 monomer (other)
chain: SLSCRPPMVKLVCPADNLRAEGLECTKTCQNYDLECMSMGCVSGCLCPPGMVRHENRCVALERCPCFHQGKEYAPGETVKIGCNTCVCQDRKWNCTDHVCDATCSTIGMAHYLTFDGLKYLFPGECQYVLVQDYCGSNPGTFRILVGNKGCSHPSVKCKKRVTILVEGGEIELFDGEVNVKRPMKDETHFEVVESGRYIILLLGKALSVVWDRHLSISVVLKQTYQEKVCGLCGNFDGIQNNDLTSSNLQVEEDPVDFGNSWKVSSQCADTRKVPLDSALAEDQVDPRLIDGK
notes: also called 2306; TIL′/E′/VWD3 II
For B1, the “IC50 (nM), FVIII uptake in dendritic cells” value [1] was 570 nM and the IC50 [2] was 2200 nM.

B2: VWF(764-1250)-C1099/1142S-ALA-HPC4 monomer (other)
chain: SLSCRPPMVKLVCPADNLRAEGLECTKTCQNYDLECMSMGCVSGCLCPPGMVRHENRCVALERCPCFHQGKEYAPGETVKIGCNTCVCQDRKWNCTDHVCDATCSTIGMAHYLTFDGLKYLFPGECQYVLVQDYCGSNPGTFRILVGNKGCSHPSVKCKKRVTILVEGGEIELFDGEVNVKRPMKDETHFEVVESGRYIILLLGKALSVVWDRHLSISVVLKQTYQEKVCGLCGNFDGIQNNDLTSSNLQVEEDPVDFGNSWKVSSQCADTRKVPLDSSPATCHNNIMKQTMVDSSCRILTSDVFQDCNKLVDPEPYLDVCIYDTCSCESIGDCASFCDTIAAYAHVCAQHGKVVTWRTATLCPQSCEERNLRENGYESEWRYNSCAPACQVTCQHPEPLACPVQCVEGCHAHCPPGKILDELLQTCVDPEDCPVCEVAGRRFASGKKVTLNPSDPEHCQICHCDVVNLTCEACQEPGGLVVPPTDAALAEDQVDPRLIDGK
notes: also called TIL′/E′/D3 I
For B2, the “IC50 (nM), FVIII uptake in dendritic cells” value [1] was 31 nM and the IC50 [2] was 12 nM.

B3: VWF(864-1250)-C1099/1142S-ALA-HPC4 monomer (other)
chain: DATCSTIGMAHYLTFDGLKYLFPGECQYVLVQDYCGSNPGTFRILVGNKGCSHPSVKCKKRVTILVEGGEIELFDGEVNVKRPMKDETHFEVVESGRYIILLLGKALSVVWDRHLSISVVLKQTYQEKVCGLCGNFDGIQNNDLTSSNLQVEEDPVDFGNSWKVSSQCADTRKVPLDSSPATCHNNIMKQTMVDSSCRILTSDVFQDCNKLVDPEPYLDVCIYDTCSCESIGDCASFCDTIAAYAHVCAQHGKVVTWRTATLCPQSCEERNLRENGYESEWRYNSCAPACQVTCQHPEPLACPVQCVEGCHAHCPPGKILDELLQTCVDPEDCPVCEVAGRRFASGKKVTLNPSDPEHCQICHCDVVNLTCEACQEPGGLVVPPTDAALAEDQVDPRLIDGK
notes: also called 0001; D3 I
In the case of B3, the IC50 [2] is reported as 20000 nM.

B4: VWF(764-1261)-C1099/1142S-ALA-HPC4 monomer (other)
chain: SLSCRPPMVKLVCPADNLRAEGLECTKTCQNYDLECMSMGCVSGCLCPPGMVRHENRCVALERCPCFHQGKEYAPGETVKIGCNTCVCQDRKWNCTDHVCDATCSTIGMAHYLTFDGLKYLFPGECQYVLVQDYCGSNPGTFRILVGNKGCSHPSVKCKKRVTILVEGGEIELFDGEVNVKRPMKDETHFEVVESGRYIILLLGKALSVVWDRHLSISVVLKQTYQEKVCGLCGNFDGIQNNDLTSSNLQVEEDPVDFGNSWKVSSQCADTRKVPLDSSPATCHNNIMKQTMVDSSCRILTSDVFQDCNKLVDPEPYLDVCIYDTCSCESIGDCASFCDTIAAYAHVCAQHGKVVTWRTATLCPQSCEERNLRENGYESEWRYNSCAPACQVTCQHPEPLACPVQCVEGCHAHCPPGKILDELLQTCVDPEDCPVCEVAGRRFASGKKVTLNPSDPEHCQICHCDVVNLTCEACQEPGGLVVPPTDAPVSPTTLYVEDALAEDQVDPRLIDGK
notes: also called 2309; TIL′/E′/D3 II
B4: binds [3].
